According to US8722052B2, “Vaccinia virus protein A46 peptide and use thereof” (priority 2008, dated 2014):

Tests used:
PBMCs = assay: MTT cell viability assay, PBMC; type: cell-based, human; settings: peptide 1, 5 and 25 μM
Method: FIGS. 13A and B are bar charts showing the effect of A467 and A464 on LPS-induced TNFα production and on cell viability in primary human cells. Peripheral blood mononuclear cells (PBMCs) were seeded in 96 well plates (1 ×10^6 cells/ml) 24 hours before treatment. A467 (SEQ ID NO. 23) and A464 (SEQ ID NO. 20) were added to the cells at 1, 5 and 25 μM 1 hour before stimulating with 10 ng/ml LPS. The peptides were added into the unstimulated control wells at 25 μM. Supernatants were collected 6 hours after stimulation and assayed for TNFα production by ELISA (A). The cells were assayed for viability by the MTT assay (B). No peptides were added to the control wells (black bars). Data is representative of at least three experiments each performed in triplicate and is expressed as mean±s.d;
Cell viability was measured by assessing mitochondrial function using an MTT (3-(4,5-Dimethylthiazol-2-yl)-2,5-diphenyltetrazolium bromide) assay. Cells were seeded into 96 well plates and treated with peptides and agonists as described above in relation to the Figs. Wells containing medium only served as a blank control. To terminate treatment of cells, medium was removed and the cells were washed once with PBS. […] MTT was then removed and 200 μl per well of dimethyl sulphoxide (DMSO) was added and cells incubated for 20 min at 37° C. in the dark, prior to absorbance being read at 595 nm on a spectrophotometer.

IRF3 = assay: LPS-induced IRF3 activation, IRF3-GAL4 reporter assay in HEK293_TLR4 cells; type: cell-based, human; settings: peptide 1, 5 or 10 μM, 10 ng/ml LPS 6 h
Method: FIG. 26 is a bar chart showing the effect of A464 on LPS-induced IRF3 activation in HEK293 cells. HEK293_TLR4 cells were seeded in 96 well plate (1.5×10^5 cells/ml) 24 hours before transfection with the plasmid DNA. Cells were transfected with a plasmid encoding IRF3-GAL4, together with pFR-luciferase and TK-Renilla reporter gene plasmids. The total amount of plasmid DNA transfected into the cells was made up to 230 ng/well by adding pcDNA. A464 (SEQ ID NO. 20) was added to the cells at a concentration of 1, 5 or 10 μM the next day, and cells were stimulated with 10 ng/ml LPS 1 hour after treatment with the peptide for 6 hours. Cells were harvested and assayed for IRF3 activation by reporter gene assay. No peptides were added to the control wells (black bars). Data is representative of two experiments, each performed in triplicate and is expressed as mean fold induction±s.d. relative to control levels;
HEK293 cells were transfected using GeneJuice® a proprietary non-toxic transfection reagent. 200 μl/well cells at a density of 1×10^5 cells/ml were seeded the day before transfection. 0.8 μl of GeneJuice was mixed with 9.2 μl of serum-free DMEM (SFM) per transfection and incubated for 5 min at room temperature before adding the appropriate amount of the plasmid DNA. […] Luciferase activity was analysed using a luminometer.

KYSFKLILAEYRRRRRRRRR [Peptide A464]
toxicity (MTT) (PBMCs): not toxic
inhibition of LPS-induced IRF3 activation (IRF3): completely inhibited LPS-induced IRF3 activation at 1 μM
